Positions count from the first letter of the chain named. Names and notes keep the numbering of the source.
Columns and labels:
[1] = biological target: the molecule itself; test: SEC-MALS; Superdex 200 Increase 10/300 GL, 25 mM HEPES pH 7.5, 125 mM NaCl, 5% glycerol (w/w), RT
[2] = biological target: T1, IM30-Venus, Venus-labeled Synechocystis IM30 (Synechocystis sp. PCC 6803, UniProt Q55707 1-267); test: FRET or BRET; 0.2 µM purified CFP/Venus labeled IM30 rings (copurified from mixed cell pellets, 27% CFP and 63% Venus w/w), excitation 420 nm, RT, with 0-1000 µM DOPG liposomes; settings: both partners purified
T1 construct: IM30 (VIPP1) of Synechocystis sp; PCC 6803; Venus fragment ligated into pRSET SynIM30 plasmid; purified as the His-tagged WT, so a His tag is likely present; also called Venus-labeled IM30 monomers; source: E. coli, copurified with IM30-CFP after mixing cell pellets prior to cell lysis
T1 sequence (looked up): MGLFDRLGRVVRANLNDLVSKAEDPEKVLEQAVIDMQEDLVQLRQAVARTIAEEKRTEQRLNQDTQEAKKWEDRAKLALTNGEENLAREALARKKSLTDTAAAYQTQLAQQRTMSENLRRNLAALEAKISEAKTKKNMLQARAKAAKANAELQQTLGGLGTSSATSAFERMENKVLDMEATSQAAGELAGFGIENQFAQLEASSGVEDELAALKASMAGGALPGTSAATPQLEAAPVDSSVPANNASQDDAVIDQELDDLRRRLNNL

[3] = biological target: the molecule itself; test: SEC; Superose12 10/300 GL, 20 mM HEPES pH 7.6 with 0, 50, 100, 150 or 300 mM NaCl, 8 °C; IM30* at suitable NaCl concentrations
[4] = biological target: the molecule itself; test: cross-linking; disulfide between Cys227 of two protomers; SDS-PAGE of the purified A227C mutants in absence of reducing agents
[5] = biological target: the molecule itself; test: atomic force microscopy; ~0.5 µM IM30 WT adsorbed on mica, 10 mM Tris or HEPES, 150 mM KCl, 25 mM MgCl2, pH 7.6; imaged in buffer at ~30 °C

B1: IM30_H3b-7 (amino acids 147-267), WT fragment of Synechocystis IM30 (domain or fragment, Synechocystis sp. PCC 6803, UniProt Q55707 147-267, looked up)
chain: KANAELQQTLGGLGTSSATSAFERMENKVLDMEATSQAAGELAGFGIENQFAQLEASSGVEDELAALKASMAGGALPGTSAATPQLEAAPVDSSVPANNASQDDAVIDQELDDLRRRLNNL
notes: IM30 (VIPP1) of Synechocystis sp; PCC 6803, amino acids 147-267 (helices 3b-7); also called helices 3b-7; intrinsically disordered C-terminus
[1]
  stoichiometry N: 2

B2: IM30-CFP, CFP-labeled Synechocystis IM30 (natural protein, Synechocystis sp. PCC 6803, UniProt Q55707 1-267, looked up)
chain: T1 sequence (looked up)
notes: IM30 (VIPP1) of Synechocystis sp; PCC 6803; CFP fragment ligated into pRSET SynIM30 plasmid; purified as the His-tagged WT, so a His tag is likely present; also called CFP labeled IM30 monomers; source: E. coli, copurified with IM30-Venus after mixing cell pellets prior to cell lysis
[2]
  binding result: binds

B3: IM30* (E83A, E84A, F168A, E169A, R170A, M171A), oligomerization-impaired mutant of Synechocystis IM30 (natural protein, Synechocystis sp. PCC 6803, UniProt Q55707 1-267, looked up)
chain: T1 sequence (looked up) with E83A, E84A, F168A, E169A, R170A, M171A
notes: IM30 (VIPP1) of Synechocystis sp; PCC 6803, full length, with six alanine substitutions made by site-directed mutagenesis; For SEC-SAXS the protein was heated to 50 °C, cooled slowly and buffer-exchanged by SEC before the run; also called IM30* dimers
[3]
  stoichiometry N: 2

B4: IM30*_A227C (E83A, E84A, F168A, E169A, R170A, M171A, A227C) (natural protein, Synechocystis sp. PCC 6803, UniProt Q55707 1-267, looked up)
chain: T1 sequence (looked up) with E83A, E84A, F168A, E169A, R170A, M171A, A227C
notes: IM30 (VIPP1) of Synechocystis sp; PCC 6803, full length, the six alanine substitutions of IM30* and A227C in the linker between helix 6 and 7; also called A227C mutant of IM30*
[4]
  binding result: binds

B5: inner membrane-associated protein of 30 kDa (IM30) wild type, N-terminally His-tagged, from Synechocystis sp. PCC 6803 (natural protein, UniProt Q55707 1-267, looked up)
chain: T1 sequence (looked up)
notes: IM30 (VIPP1) of Synechocystis sp; PCC 6803, full-length wild type; also called IM30 WT; VIPP1
[5]
  binding result: binds

B6: IM30_A227C, A227C mutant of Synechocystis IM30 WT (natural protein, Synechocystis sp. PCC 6803, UniProt Q55707 1-267, looked up)
chain: T1 sequence (looked up) with A227C
notes: IM30 (VIPP1) of Synechocystis sp; PCC 6803, full length, with A227C; the methods print '(A272C)' in brackets after the name IM30_A227C, the results and the legend say A227C; also called A227C mutant of IM30 WT
[4]
  binding result: binds

Reference: publication PMC7577978, “IM30 IDPs form a membrane-protective carpet upon super-complex disassembly” (Communications Biology, 2020)
